Where no end group is shown, it is not given here.
B1: RVNPADY, cyclic mimotope (peptide)
peptide: RVNPADY
modifications: also: cyclic peptide, ring type and places not given here
B2: …, cyclic mimotope (peptide)
peptide: RGNPADYGG
modifications: also: cyclic peptide, ring type and places not given here
B3: …, cyclic mimotope (peptide)
peptide: RLRGNPADY
modifications: also: cyclic peptide, ring type and places not given here
B4: …, cyclic mimotope (peptide)
peptide: VRLRRNPAD
modifications: also: cyclic peptide, mode of cyclisation not given here
B5: …, cyclic mimotope (peptide)
peptide: SLRVNPADY
modifications: also: cyclic peptide, mode of cyclisation not given here
B6: …, cyclic mimotope (peptide)
peptide: LRLNPADYG
modifications: also: cyclic peptide, mode of cyclisation not given here
B7: …, cyclic mimotope (peptide)
peptide: LRINPADYG
modifications: also: cyclic peptide, mode of cyclisation not given here
B8: RINPADY, cyclic mimotope (peptide)
peptide: RINPADY
modifications: also: cyclic peptide, ring type and places not given here
B9: WNPADYP, cyclic mimotope (peptide)
peptide: WNPADYP
modifications: also: cyclic peptide, mode of cyclisation not given here
B10: RPNPADY, cyclic mimotope (peptide)
peptide: RPNPADY
modifications: also: cyclic peptide, ring type and places not given here
B11: NPADYGR, cyclic mimotope (peptide)
peptide: NPADYGR
modifications: also: cyclic peptide, ring type and places not given here
B12: …, cyclic mimotope (peptide)
peptide: DVRLRPNPADY
modifications: also: cyclic peptide, mode of cyclisation not given here
B13: …, cyclic mimotope (peptide)
peptide: GGSLRINPADY
modifications: also: cyclic peptide, mode of cyclisation not given here
B14: …, cyclic mimotope (peptide)
peptide: RINPADYGG
modifications: also: cyclic peptide, ring type and places not given here
B15: …, cyclic mimotope (peptide)
peptide: GGSLRVNPADY
modifications: also: cyclic peptide, mode of cyclisation not given here
B16: …, cyclic mimotope (peptide)
peptide: RLRFNPADY
modifications: also: cyclic peptide, ring type and places not given here
B17: …, cyclic mimotope (peptide)
peptide: DVRLRINPADY
modifications: also: cyclic peptide, mode of cyclisation not given here
B18: …, cyclic mimotope (peptide)
peptide: DVRLRFNPADY
modifications: also: cyclic peptide, mode of cyclisation not given here
B19: RGNPADY, cyclic mimotope (peptide)
peptide: RGNPADY
modifications: also: cyclic peptide, ring type and places not given here
B20: …, cyclic mimotope (peptide)
peptide: SLRGNPADY
modifications: also: cyclic peptide, ring type and places not given here
B21: …, cyclic mimotope (peptide)
peptide: SLRLNPADY
modifications: also: cyclic peptide, mode of cyclisation not given here
B22: …, cyclic mimotope (peptide)
peptide: RLRVNPADY
modifications: also: cyclic peptide, ring type and places not given here
B23: RTNPADY, cyclic mimotope (peptide)
peptide: RTNPADY
modifications: also: cyclic peptide, ring type and places not given here
B24: NPADYRG, cyclic mimotope (peptide)
peptide: NPADYRG
modifications: also: cyclic peptide, ring type and places not given here
B25: …, cyclic mimotope (peptide)
peptide: GGSLRGNPADY
modifications: also: cyclic peptide, mode of cyclisation not given here
B26: NPADYGH, cyclic mimotope (peptide)
peptide: NPADYGH
modifications: also: cyclic peptide, mode of cyclisation not given here
B27: RYNPADY, cyclic mimotope (peptide)
peptide: RYNPADY
modifications: also: cyclic peptide, ring type and places not given here
B28: …, cyclic mimotope (peptide)
peptide: SLRINPADY
modifications: also: cyclic peptide, mode of cyclisation not given here
B29: …, cyclic mimotope (peptide)
peptide: VRLRVNPADYG
modifications: also: cyclic peptide, mode of cyclisation not given here
B30: …, cyclic mimotope (peptide)
peptide: GGSLRFNPADY
modifications: also: cyclic peptide, mode of cyclisation not given here
B31: …, cyclic mimotope (peptide)
peptide: DVRLRVNPADY
modifications: also: cyclic peptide, mode of cyclisation not given here
B32: RLNPADY, cyclic mimotope (peptide)
peptide: RLNPADY
modifications: also: cyclic peptide, ring type and places not given here
B33: …, cyclic mimotope (peptide)
peptide: WIDVRLRGNPA
modifications: also: cyclic peptide, mode of cyclisation not given here
B34: …, cyclic mimotope (peptide)
peptide: LRRNPADYG
modifications: also: cyclic peptide, mode of cyclisation not given here
B35: …, cyclic mimotope (peptide)
peptide: RLRINPADY
modifications: also: cyclic peptide, ring type and places not given here
B36: RRNPADY, cyclic mimotope (peptide)
peptide: RRNPADY
modifications: also: cyclic peptide, ring type and places not given here
B37: …, cyclic mimotope (peptide)
peptide: LRVNPADYG
modifications: also: cyclic peptide, mode of cyclisation not given here
B38: …, cyclic mimotope (peptide)
peptide: GSLRWNPADYR
modifications: also: cyclic peptide, mode of cyclisation not given here
B39: LRRNPAD, cyclic mimotope (peptide)
peptide: LRRNPAD
modifications: also: cyclic peptide, mode of cyclisation not given here
B40: …, cyclic mimotope (peptide)
peptide: RLYWNPADY
modifications: also: cyclic peptide, ring type and places not given here
B41: …, cyclic mimotope (peptide)
peptide: RLRYNPADY
modifications: also: cyclic peptide, ring type and places not given here
B42: …, cyclic mimotope (peptide)
peptide: GNPADYGGI
modifications: also: cyclic peptide, mode of cyclisation not given here
B43: RFNPADY, cyclic mimotope (peptide)
peptide: RFNPADY
modifications: also: cyclic peptide, ring type and places not given here
B44: …, cyclic mimotope (peptide)
peptide: DVRLRGNPADY
modifications: also: cyclic peptide, mode of cyclisation not given here
B45: …, cyclic mimotope (peptide)
peptide: SLRFNPADY
modifications: also: cyclic peptide, ring type and places not given here
B46: …, cyclic mimotope (peptide)
peptide: RLRLNPADY
modifications: also: cyclic peptide, ring type and places not given here
B47: WNPADYR, cyclic mimotope (peptide)
peptide: WNPADYR
modifications: also: cyclic peptide, mode of cyclisation not given here

target: monoclonal antibody mAB 198; assay: peptide microarray, fluorescence, cyclic peptide

relative signal [%] | Binder
18.7% | B1
22.2% | B2
32.7% | B3
14.7% | B4
26.5% | B5
28.6% | B6
22.8% | B7
28.9% | B8
21.1% | B9
15.6% | B10
19.5% | B11
21.3% | B12
25.4% | B13
23.1% | B14
22.5% | B15
21.3% | B16
31.4% | B17
27.7% | B18
23.8% | B19
15.4% | B20
21.8% | B21
61.3% | B22
14.6% | B23
27.4% | B24

relative signal [%] | Binder
19.6% | B25
15.8% | B26
20.2% | B27
28% | B28
13.4% | B29
14.5% | B30
30.2% | B31
42.3% | B32
43.2% | B33
23.4% | B34
25.5% | B35
23.5% | B36
45.1% | B37
16.2% | B38
28.2% | B39
13.7% | B40
24.5% | B41
13.7% | B42
37.5% | B43
25% | B44
13.6% | B45
37.3% | B46
24.9% | B47
